Measurements reported in patent publication US6407222B1, “Cloning and expression of dog gonadotropin releasing hormone receptor” (Merck & Co., Inc., priority 1999, dated 2002).
Blank lines part the entries; values can stand above or below the molecule they belong to.

Key:
[1] = target: dog gonadotropin-releasing hormone (GnRH) receptor (dog) (UniProt Q9MZI6); assay: cell-based or functional assay
dog GnRH receptor = target: T1, dog GnRH receptor (Canis lupus familiaris, UniProt Q9MZI6); assay: Phosphoinositide (PI) turnover assay in 1B2-1F9 cells (CHO-K1 stably expressing the dog GnRH receptor); format: cell-based; settings: 1B2-1F9 CHO-K1 clone expressing dog GnRH receptor; 37° C., 1 hour; FIG. 5; read-out: EC50 of GnRH-stimulated PI turnover
T1 construct: The full-length coding cDNA of the dog GnRH receptor was cloned from dog pituitary mRNA by RT-PCR; expressed in transfected cells
T1 sequence (Q9MZI6 1-327): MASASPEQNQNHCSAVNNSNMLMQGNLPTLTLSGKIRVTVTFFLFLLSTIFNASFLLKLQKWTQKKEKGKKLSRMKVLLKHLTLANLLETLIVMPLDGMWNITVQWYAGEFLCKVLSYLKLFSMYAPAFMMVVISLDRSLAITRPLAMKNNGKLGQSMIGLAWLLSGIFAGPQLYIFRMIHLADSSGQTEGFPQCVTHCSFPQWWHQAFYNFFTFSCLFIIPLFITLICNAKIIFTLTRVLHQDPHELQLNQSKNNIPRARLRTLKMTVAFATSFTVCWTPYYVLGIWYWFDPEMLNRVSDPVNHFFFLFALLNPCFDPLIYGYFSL
Method: The coding cDNA of the dog GnRH receptor was subcloned into a polycistronic expression vector pIRES1.neo (Clontech Laboratories, Palo Alto, Calif.) to generate cells stably expressing the receptor. The plasmid DNA of pIRES1.neo-dog-GnRHR was transfected into CHO-K1 cells by lipofectin (GIBCO-BRL, Grand Island, N.Y.) following the manufacturer's instruction. Transfection was carried out overnight and the cells were split 48 hours later. G418 at 1 mg/ml was added 24 hours after splitting, and its concentration was increased to 2 mg/ml in 2-3 days. After 10 days selection by G418, colonies were picked and transferred to 24-well plates. The clones that expressed the dog GnRH receptor were screened by a whole cell binding assay using a radiolabeled peptide agonist of GnRH, 5-(^125Iodo-Tyr)-Buserelin (Woods Assay, Portland, Oreg.). […] After single cell isolation, the membrane from this clone was prepared, and the membrane binding assay was performed using ^125I-buserelin. […] The GnRH-stimulated PI turnover was also performed.
1B2-1F9 cells are functionally coupled to phospholipase C. […] The eluate was then counted in a scintillation counter.

[2] = target: dog gonadotropin-releasing hormone (GnRH) receptor (dog) (UniProt Q9MZI6); assay: whole cell radioligand binding assay on transfected CHO-K1 clones (seven of 71 clones)
[3] = target: dog gonadotropin-releasing hormone (GnRH) receptor (dog) (UniProt Q9MZI6); assay: whole cell radioligand binding assay on CHO-K1 clone 1B2-1F9

- EC50 of GnRH-stimulated PI turnover [1]: 0.3 to 0.4 nM
Molecule: Gonadotropin-releasing hormone (GnRH) (from UniProt P01148 24-92) (ligand)

Molecule: CC(C)C[C@H](NC(=O)CNC(=O)[C@H](Cc1ccc(O)cc1)NC(=O)[C@H](CO)NC(=O)[C@H](Cc1c[nH]c2ccccc12)NC(=O)[C@H](Cc1cnc[nH]1)NC(=O)[C@@H]1CCC(=O)N1)C(=O)N[C@@H](CCCNC(=N)N)C(=O)N1CCC[C@H]1C(=O)NCC(N)=O [GnRH, Gonadotropin-releasing hormone]
- EC50 (dog GnRH receptor): 0.3 to 0.4 nM

- specific binding activity, fold above the non-specific binding [2]: 5 fold
- specific binding activity, fold above the background [3]: > 10 fold
Molecule: 5-(125Iodo-Tyr)-Buserelin (peptide)
